In one experiment the target is human IL-13 (human, UniProt P35225 35-146). As to the kind of experiment: cell-based or functional assay.
A further experiment addresses T1, human IL-4 (human, UniProt P05112 25-153).
T1 sequence (looked up): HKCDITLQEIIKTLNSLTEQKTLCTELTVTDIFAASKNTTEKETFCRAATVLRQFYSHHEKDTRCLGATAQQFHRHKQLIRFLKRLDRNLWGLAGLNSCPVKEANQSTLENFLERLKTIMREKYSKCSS
As to the kind of experiment: cell-based or functional assay.

human IL-13, sequence (P35225 35-146 limits assumed, form in doubt): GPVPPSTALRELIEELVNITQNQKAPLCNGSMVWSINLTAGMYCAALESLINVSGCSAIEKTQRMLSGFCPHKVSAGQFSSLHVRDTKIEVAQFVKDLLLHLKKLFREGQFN

B1: IL13-1338 (antibody, IgG1, V domains shown)
VH: EVQLVESGGGLVQPGGSLRLSCAASGFTFSSYAMSWVRQAPGKGLEWVASISSGDTTYYPDSVKGRFTISRDNAKNSLYLQMNSLRAEDTAVYYCARNEGYYFGLTLWGQGTLVTVSS
VL: DIQMTQSPSSLSASVGDRVTITCKASESVDHSGSSLMHWYQQKPGKAPKLLIYRASNLESGVPSRFSGSGSGTDFTLTISSLQPEDFATYYCQQSNEDPWTFGGGTKVEIK
In the case of B1, in the experiment with human IL-13, the “CD23: Fold bioactivity relative to IL13-0001” value was determined as 0.9 fold, the “CD23: Fold bioactivity relative to IL13-1307” value was found to be 26.5 fold, the “CD23 IC50 [pM]” value is 11.5 pM and the “pSTAT6: Fold bioactivity relative to IL13-0001” value was 1.1 fold. For the same molecule, in the experiment with human IL-13, the “pSTAT6: Fold bioactivity relative to IL13-1307” value came to 1.6 fold and the “pSTAT6 IC50 [pM]” value is 87 pM.

B2: IL4-1347 (antibody, human IgG1, kappa, V domains shown)
VH: QVTLRESGPALVKPTQTLTLTCTFSGFSLSTSGMGVSWIRQPPGKGLEWLAHIYWDDDKRYNPSLKSRLTISKDTSRNQVVLTMTNMDPVDTATYYCARRETVFYWYFDVWGRGTPVTVSS
VL: DIQMTQSPSSLSASVGDRVTITCKASQSVDEDGDSYMNWYQQKPGKAPKLLIYAASNLESGVPSRFSGSGSGTDFTLTISSLQPEDFATYYCQQSNEDPPTFGGGTKVEIKR
On to B2, for which, in the experiment with human IL-4, the “CD23: Fold bioactivity relative to IL4-1285” value came out at 1.5 fold and the “CD23 IC50 [pM]” value was determined as 65.2 pM.

B3: IL4-1350 (antibody, IgG1, V domains shown)
VH: QVTLRESGPALVKPTQTLTLTCTFSGFSLSTWGSGVSWIRQPPGKGLEWLAHIYWDDDKRYNPSLKSRLTISKDTSRNQVVLTMTNMDPVDTATYYCARRETVFYWYFDVWGRGTPVTVSS
VL: DIQMTQSPSSLSASVGDRVTITCKASQSVDEDGDSYMNWYQQKPGKAPKLLIYAASNLESGVPSRFSGSGSGTDFTLTISSLQPEDFATYYCQQSNEDPPTFGGGTKVEIK
Regarding B3, in the experiment with human IL-4, the “CD23: Fold bioactivity relative to IL4-1285” value was 5.4 fold and the “CD23 IC50 [pM]” value was found to be 17.9 pM.

B4: IL13-1308 (antibody, IgG1, V domains shown)
VH: EVQLVESGGGLVQPGGSLRLSCAASGFTFSSYAMSWVRQAPGKGLEWVASISSGDTTYYPDSVKGRFTISRDNAKNSLYLQMNSLRAEDTAVYYCARLDGYYFGFPYWGQGTLVTVSS
VL: DIQMTQSPSSLSASVGDRVTITCKASESVDHFGWSLVHWYQQKPGKAPKLLIYRASNLESGVPSRFSGSGSGTDFTLTISSLQPEDFATYYCQQSNEDPWTFGGGTKVEIKR
Take B4: in the experiment with human IL-13, the “CD23: Fold bioactivity relative to IL13-0001” value is 0.7 fold, the “CD23: Fold bioactivity relative to IL13-1307” value worked out at 21.3 fold, the “CD23 IC50 [pM]” value came out at 14.4 pM and the “pSTAT6: Fold bioactivity relative to IL13-0001” value was determined as 2.2 fold. Further, in the experiment with human IL-13, the “pSTAT6: Fold bioactivity relative to IL13-1307” value was 3.3 fold and the “pSTAT6 IC50 [pM]” value was determined as 42.7 pM.

B5: IL4-1356 (antibody, IgG1, V domains shown)
VH: QVTLRESGPALVKPTQTLTLTCTFSGFSLLTFGSGVSWIRQPPGKGLEWLAHIYWDDDKRYNPSLKSRLTISKDTSRNQVVLTMTNMDPVDTATYYCARRETVFYWYFDVWGRGTPVTVSS
VL: DIQMTQSPSSLSASVGDRVTITCKASQSVDEDGDSYMNWYQQKPGKAPKLLIYAASNLESGVPSRFSGSGSGTDFTLTISSLQPEDFATYYCQQSNEDPPTFGGGTKVEIK
As for B5, in the experiment with human IL-4, the “CD23: Fold bioactivity relative to IL4-1285” value came out at 2.1 fold and the “CD23 IC50 [pM]” value is 44.9 pM.

B6: IL4-1352 (antibody, IgG1, V domains shown)
VH: QVTLRESGPALVKPTQTLTLTCTFSGFSLSNWGMGVSWIRQPPGKGLEWLAHIYWDDDKRYNPSLKSRLTISKDTSRNQVVLTMTNMDPVDTATYYCARRETVFYWYFDVWGRGTPVTVSS
VL: DIQMTQSPSSLSASVGDRVTITCKASQSVDEDGDSYMNWYQQKPGKAPKLLIYAASNLESGVPSRFSGSGSGTDFTLTISSLQPEDFATYYCQQSNEDPPTFGGGTKVEIK
In the case of B6, in the experiment with human IL-4, the “CD23: Fold bioactivity relative to IL4-1285” value was 4.9 fold and the “CD23 IC50 [pM]” value amounted to 19.6 pM.

(Values after patent US20240117030A1 (Pfizer, published 2024).)
